Experimental data: PMC5603801

Molecular target: PnpM-His6 (C-terminal His-tagged PnpM, LysR-type transcriptional regulator of Pseudomonas sp. strain WBC-3) (Pseudomonas sp. strain WBC-3)
Experiment: SEC; analytical gel filtration of PnpM-His6 on Hiload Superdex 200 pg (1.6 x 60 cm); 10 mM Tris-HCl pH 7.5, 0.1 M NaCl, 5% glycerol; 0.5 ml/min; buffer with or without PNP; native mass from a calibration curve of standard proteins

stoichiometry N: 4
Substance: PnpM-His6 (C-terminal His-tagged PnpM, LysR-type transcriptional regulator of Pseudomonas sp. strain WBC-3) (natural protein)
